Substrate in data set [1]: CC(C)(COP(=O)(O)OP(=O)(O)OC[C@H]1O[C@@H](n2cnc3c(N)ncnc32)[C@H](O)[C@@H]1OP(=O)(O)O)[C@@H](O)C(=O)NCCC(=O)NCCSC(=O)/C=C/c1ccc(O)cc1
Description: steady-state kinetics, LC-MS/MS (Km). Format: biochemical, Panicum virgatum. Conditions: malonyl-CoA (co-substrate).

Substrate in the data set “purified protein”: O=C(/C=C/c1ccc(O)cc1)c1c(O)cc(O)cc1O
Nature of the data set: purified protein. It is filed as biochemical, Panicum virgatum.

Substrate in data set [2]: O=C(/C=C/c1ccc(O)cc1)c1c(O)cc(O)cc1O
Nature of the data set: steady-state kinetics (Km). Format: biochemical, Sorghum bicolor.

Substrate in data set [3]: O=C(/C=C/c1ccc(O)cc1)c1ccc(O)cc1O
Description: steady-state kinetics (Km). Format: biochemical, Sorghum bicolor.

B1: PvCHS (chalcone synthase) (Panicum virgatum) (protein)
chain: MAGAAAAVTVEEVRKAQRASGPATVLAIGTATPANCVHQADYPDYYFRVTKSDHLTDLKEKFKRMCDKSMIRKRYMHLTEEFLAENPNMCAYMAPSLDARQDIVVVEVPKLGKAAAQKALKEWGQPRSRITHLVFCTTSGVDMPGADYQLTKLLGLRPSVNRLMMYQQGCFAGGTVLRVAKDLAENNRGARVLVVCSEITAVTFRGPSESHLDSLVGQALFGDGAAAVIVGADPDERAERPLFQLVSAAQTLLPDSEGAIDGHLREVGLTFHLLKDVPGLISKNIERALEAAFAPLGISDWNSIFWVAHPGGPAILDQVEAKVSLDKARMRATRHVLAEYGNMSSACVLFILDEMRKRSAEDGCATTGEGLDWGVLFGFGPGLTVETVVLHSVPITAGAAAA
notes: recombinant, N-terminal 6×-His tag
Turning to B1, in data set [1], the Km was 0.1303 ± 0.0319 µM, the kcat amounted to 0.00695 ± 0.00077 s⁻¹ and the catalytic efficiency (kcat/Km) came out at 53300 M⁻¹ s⁻¹.

B2: PvCHI (chalcone isomerase) (Panicum virgatum) (protein)
chain: MAAVSEVAVDGVVFPPVARPPGSGRSHFLAGAGVRGMEIGGNFIKFTAIGVYLEEGAAVSALAKKWAGKSADELAADAAFFRDVVTGDFEKFTRVTMILPLTGEQYSGKVTENCVAYWKAVGVYTDAEGAAVDKFKEAFKPETFPPGASILFTHSPAGVLTVAFSKDSSVPESGGVAIDNKPLCEAVLESIIGEHGVSPAAKLSVAARVSELLKEASPAGGAPQAAAEPAVPVSA
notes: as for B1
For B2, in the data set “purified protein”, the Km was determined as 16.04 ± 6.28 µM, the kcat is 8010 ± 1180 s⁻¹ and the kcat/Km was found to be 5e+08 M⁻¹ s⁻¹.

B3: SbCHI (chalcone isomerase, Bmr30) (Sorghum bicolor) (protein)
chain: MAVPEVVVEGVVFPPVARPPGSAGSHFLGGAGVRGIEIGGNFIKFTAIGVYLEDAAVSALAKKWAGKTADELASDAAFFRDVVTGDFEKFTRVTMLLPLTGEQYAGKVTENCVAFWKAVGLYTDAEGVAVEKFKEAFKPETFPPGASILFTHSSTGVLTVAFSKDSSVPASGGVAIENKHLCEAVLESIIGEHGVSPAAKLSLAARVSELLTKGTAGAADAPQAEPVSVTA
notes: recombinant SbCHI
B3: in data set [2], the Km was 16.55 ± 2.08 µM, the kcat is 2890 ± 144 s⁻¹ and the catalytic efficiency (kcat/Km) turned out to be 1.74e+08 M⁻¹ s⁻¹. Moreover, in data set [3], the Km is listed as 1.585 ± 0.929 µM, the kcat came to 0.239 ± 0.0274 s⁻¹ and the kcat/Km amounted to 151000 M⁻¹ s⁻¹.

In general, Km refers to the concentration of substrate that gives half-maximal velocity. What is called kcat is the maximal rate divided by the concentration of active sites. By kcat/Km is commonly meant the second-order rate constant that governs catalysis at low substrate concentration.

The values above are taken from article PMC11172311, “Structural and Interactional Analysis of the Flavonoid Pathway Proteins: Chalcone Synthase, Chalcone Isomerase and Chalcone Isomerase-like Protein” (International Journal of Molecular Sciences, 2024).
